According to paper doi:10.1101/2025.04.28.650843:
Values joined by “and” are separate entries in the source; they are usually repeats but may differ in a detail not shown here. Equal entries are not always repeated.

Biological target: allophycocyanin (AP) (Synechococcus elongatus PCC 7942)
Assay: cryo-EM structure

allophycocyanin (AP) (complex)
stoichiometry N: 3 and 6
